B1: Ligand of Numb protein X 2 (Homo sapiens), Q8N448 (parent)
chain: MGTTSDEMVSVEQTSSSSLNPLCFECGQQHWTRENHLYNYQNEVDDDLVCHICLQPLLQPLDTPCGHTFCYKCLRNFLQEKDFCPLDRKRLHFKLCKKSSILVHKLLDKLLVLCPFSSVCKDVMQRCDLEAHLKNRCPGASHRRVALERRKTSRTQAEIENENGPTLLDPAGTLSPEADCLGTGAVPVERHLTSASLSTWSEEPGLDNPAFEESAGADTTQQPLSLPEGEITTIEIHRSNPYIQLGISIVGGNETPLINIVIQEVYRDGVIARDGRLLAGDQILQVNNYNISNVSHNYARAVLSQPCNTLHLTVLRERRFGNRAHNHSDSNSPREEIFQVALHKRDSGEQLGIKLVRRTDEPGVFILDLLEGGLAAQDGRLSSNDRVLAINGHDLKYGTPELAAQIIQASGERVNLTIARPGKPQPGNTIREAGNHSSSSQHHTPPPYYSRPSSHKDLTQCVTCQEKHITVKKEPHESLGMTVAGGRGSKSGELPIFVTSVPPHGCLARDGRIKRGDVLLNINGIDLTNLSHSEAVAMLKASAASPAVALKALEVQIVEEATQNAEEQPSTFSENEYDASWSPSWVMWLGLPSTLHSCHDIVLRRSYLGSWGFSIVGGYEENHTNQPFFIKTIVLGTPAYYDGRLKCGDMIVAVNGLSTVGMSHSALVPMLKEQRNKVTLTVICWPGSLV
partner: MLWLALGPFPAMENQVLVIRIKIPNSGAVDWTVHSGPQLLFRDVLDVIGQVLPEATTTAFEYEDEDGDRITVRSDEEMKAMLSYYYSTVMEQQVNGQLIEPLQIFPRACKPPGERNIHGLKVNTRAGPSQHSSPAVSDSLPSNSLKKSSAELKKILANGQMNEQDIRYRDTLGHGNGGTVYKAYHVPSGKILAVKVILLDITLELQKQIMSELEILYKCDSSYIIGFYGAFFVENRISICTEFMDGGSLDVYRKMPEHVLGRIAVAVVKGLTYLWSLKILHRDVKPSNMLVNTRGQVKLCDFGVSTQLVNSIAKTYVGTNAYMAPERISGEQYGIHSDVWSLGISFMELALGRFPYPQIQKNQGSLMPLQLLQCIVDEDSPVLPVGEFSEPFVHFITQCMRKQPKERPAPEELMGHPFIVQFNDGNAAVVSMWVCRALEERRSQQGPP
B2: Angiomotin (Homo sapiens), Q4VCS5 (parent)
chain: MRNSEEQPSGGTTVLQRLLQEQLRYGNPSENRSLLAIHQQATGNGPPFPSGSGNPGPQSDVLSPQDHHQQLVAHAARQEPQGQEIQSENLIMEKQLSPRMQNNEELPTYEEAKVQSQYFRGQQHASVGAAFYVTGVTNQKMRTEGRPSVQRLNPGKMHQDEGLRDLKQGHVRSLSERLMQMSLATSGVKAHPPVTSAPLSPPQPNDLYKNPTSSSEFYKAQGPLPNQHSLKGMEHRGPPPEYPFKGMPPQSVVCKPQEPGHFYSEHRLNQPGRTEGQLMRYQHPPEYGAARPAQDISLPLSARNSQPHSPTSSLTSGGSLPLLQSPPSTRLSPARHPLVPNQGDHSAHLPRPQQHFLPNQAHQGDHYRLSQPGLSQQQQQQQQQHHHHHHHQQQQQQQPQQQPGEAYSAMPRAQPSSASYQPVPADPFAIVSRAQQMVEILSDENRNLRQELEGCYEKVARLQKVETEIQRVSEAYENLVKSSSKREALEKAMRNKLEGEIRRMHDFNRDLRERLETANKQLAEKEYEGSEDTRKTISQLFAKNKESQREKEKLEAELATARSTNEDQRRHIEIRDQALSNAQAKVVKLEEELKKKQVYVDKVEKMQQALVQLQAACEKREQLEHRLRTRLERELESLRIQQRQGNCQPTNVSEYNAAALMELLREKEERILALEADMTKWEQKYLEENVMRHFALDAAATVAAQRDTTVISHSPNTSYDTALEARIQKEEEEILMANKRCLDMEGRIKTLHAQIIEKDAMIKVLQQRSRKEPSKTEQLSCMRPAKSLMSISNAGSGLLSHSSTLTGSPIMEEKRDDKSWKGSLGILLGGDYRAEYVPSTPSPVPPSTPLLSAHSKTGSRDCSTQTERGTESNKTAAVAPISVPAPVAAAATAAAITATAATITTTMVAAAPVAVAAAAAPAAAAAPSPATAAATAAAVSPAAAGQIPAAASVASAAAVAPSAAAAAAVQVAPAAPAPVPAPALVPVPAPAAAQASAPAQTQAPTSAPAVAPTPAPTPTPAVAQAEVPASPATGPGPHRLSIPSLTCNPDKTDGPVFHSNTLERKTPIQILGQEPDAEMVEYLI
partner: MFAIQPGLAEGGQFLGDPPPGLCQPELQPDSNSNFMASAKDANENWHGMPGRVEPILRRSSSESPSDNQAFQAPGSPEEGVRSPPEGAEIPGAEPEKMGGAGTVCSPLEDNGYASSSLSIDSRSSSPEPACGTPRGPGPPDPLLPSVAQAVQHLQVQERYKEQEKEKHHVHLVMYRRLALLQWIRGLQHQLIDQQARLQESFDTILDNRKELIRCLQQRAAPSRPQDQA
B3: Elongin-A2 (Homo sapiens), Q8IYF1 (parent)
chain: MAAGSTTLHAVEKLQVRLATKTEPKKLEKYLQKLSALPMTADILAETGIRKTVKRLRKHQHVGDFARDLAARWKKLVLVDRNTRPGPQDPEESASRQRFGEALQDQEKAWGFPENATAPRSPSHSPEHRRTARRTPPGQQRPHPRSHSREPRAERKCPRIAPADSGRYRASPTRTAPLRMPEGPEPAAPGKQPGRGHTHAAQGGPLLCPGCQGQPQGKAVVSHSKGHKSSRQEKRPLCAQGDWHSPTLIREKSCGACLREETPRMPSWASARDRQPSDFKTDKEGGQAGSGQRVPALEEAPDSHQKRPQHSHSNKKRPSLDGRDPGNGTHGLSPEEKEQLSNDRETQEGKPPTAHLDRTSVSSLSEVEEVDMAEEFEQPTLSCEKYLTYDQLRKQKKKTGKSATTALGDKQRKANESKGTRESWDSAKKLPPVQESQSERLQAAGADSAGPKTVPSHVFSELWDLSEAWMQANYDPLSDSDSMTSQAKPEALSSPKFREEAAFPGRRVNAKMPVYSGSRPACQLQVPTLRQQCAQVLRNNPDALSDVGEVPYWVLEPVLEGWRPDQLYRRKKDNHALVRETDELRRNHCFQDFKEEKPQENKTWREQYLRLPDAPEQRLRVMTTNIRSARGNNPNGREAKMICFKSVAKTPYDTSRRQEKSAGDADPENGEIKPASKPAGSSHTPSSQSSSGGGRDSSSSILRWLPEKRANPCLSSSNEHAAPAAKTRKQAAKKVAPLMAKAIRDYKRRFSRR
B4: Cyclin-D1-binding protein 1 (Homo sapiens), O95273 (parent)
chain: MASATAPAAAVPTLASPLEQLRHLAEELRLLLPRVRVGEAQETTEEFNREMFWRRLNEAAVTVSREATTLTIVFSQLPLPSPQETQKFCEQVHAAIKAFIAVYYLLPKDQGITLRKLVRGATLDIVDGMAQLMEVLSVTPTQSPENNDLISYNSVWVACQQMPQIPRDNKAAALLMLTKNVDFVKDAHEEMEQAVEECDPYSGLLNDTEENNSDNHNHEDDVLGFPSNQDLYWSEDDQELIIPCLALVRASKACLKKIRMLVAENGKKDQVAQLDDIVDISDEISPSVDDLALSIYPPMCHLTVRINSAKLVSVLKKALEITKASHVTPQPEDSWIPLLINAIDHCMNRIKELTQSELEL
partner: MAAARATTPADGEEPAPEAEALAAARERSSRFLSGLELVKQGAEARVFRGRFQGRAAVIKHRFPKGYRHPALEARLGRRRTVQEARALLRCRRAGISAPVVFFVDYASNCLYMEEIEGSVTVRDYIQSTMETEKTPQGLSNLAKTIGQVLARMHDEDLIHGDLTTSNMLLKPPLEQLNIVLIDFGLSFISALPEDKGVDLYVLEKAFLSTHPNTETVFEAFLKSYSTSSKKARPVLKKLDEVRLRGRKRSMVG

Consider eleven variants from IntAct's records for PubMed 31515488.

The variants in the first test derive from B1. The settings on record: with mp2k5_human MAP2K5, Q13163.
Consider S198P, for which the “effect of a mutation on the interaction” value was “with no effect”.

The variants in the next test derive from B2. The following applies: with ca216_human C1orf216, Q8TAB5.
For T899A, the “effect of a mutation on the interaction” value is on record as “with no effect”.

Variants of B3 are the subject of another test. The following applies: with traf2_human TRAF2, Q12933.
Chain of traf2_human TRAF2, Q12933 (Q12933 whole entry): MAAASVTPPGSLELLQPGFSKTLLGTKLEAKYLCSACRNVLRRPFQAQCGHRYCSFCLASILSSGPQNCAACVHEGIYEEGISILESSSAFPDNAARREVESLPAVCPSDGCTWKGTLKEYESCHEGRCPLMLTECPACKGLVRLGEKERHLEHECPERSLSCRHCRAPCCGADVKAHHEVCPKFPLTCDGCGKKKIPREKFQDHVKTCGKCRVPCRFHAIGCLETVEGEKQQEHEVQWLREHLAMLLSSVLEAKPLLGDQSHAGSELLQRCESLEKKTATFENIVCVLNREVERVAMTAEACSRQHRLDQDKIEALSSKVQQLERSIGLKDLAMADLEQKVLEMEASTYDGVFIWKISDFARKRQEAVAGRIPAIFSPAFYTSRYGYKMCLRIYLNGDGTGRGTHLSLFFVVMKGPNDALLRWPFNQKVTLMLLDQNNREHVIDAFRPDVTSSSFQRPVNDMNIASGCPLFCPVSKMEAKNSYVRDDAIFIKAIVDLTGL
Consider A403S, for which the “effect of a mutation on the interaction” value is listed as “with no effect”.
Take R179P: the “effect of a mutation on the interaction” value is “with no effect”.
Still for that read-out and setting: with C254F the entry was “with no effect”; with T6S, “with no effect”; with G505R, “with no effect”.
On to D302H, for which the “effect of a mutation on the interaction” value is on record as “with no effect”.
The same measure, in the same setting: the value for A446T was “with no effect”; that for R498Q was “with no effect”.

Another test covers variants of B4. The following applies: with prpk_human TP53RK.
In the case of I277T, the “effect of a mutation on the interaction” value is given as “disrupting interaction strength”.
